Experimental data: article PMC5690536

Biological target: GST-CD11a αI-domain
Assay: radioligand binding

Kd: 0.656 µM
Substance: 32P-labeled pkISG15 (from UniProt P05161 1-157) (natural protein)
